The record followed here is doi:10.1101/2023.06.20.545120, “Magnetogenetic cell activation using endogenous ferritin” (bioRxiv, 2024).

By Kd is commonly meant a measure of binding affinity in units of concentration. Read a high Kd as a looser complex.

Where a chain is given by its changes, count along the chain named.

One assay deals with T1, mouse liver ferritin (Mus musculus, UniProt P09528;P29391).
T1 construct: ferritin heavy chain, mouse, as part of ferritin from liver; ferritin light chain, mouse, as part of ferritin from liver; Tissue ferritin is a shell of heavy and light chains; also called mouse ferritin; mouse ferritin purified from mouse liver; source: bought: Gentaur (purified from mouse liver)
T1 sequence (P09528 whole entry, chain 1 of 2): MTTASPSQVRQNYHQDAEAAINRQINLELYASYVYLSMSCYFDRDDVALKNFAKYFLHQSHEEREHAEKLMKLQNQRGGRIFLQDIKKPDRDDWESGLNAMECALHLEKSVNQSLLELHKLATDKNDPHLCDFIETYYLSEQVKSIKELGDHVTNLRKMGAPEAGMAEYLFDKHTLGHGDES
T1 sequence (P29391 whole entry, chain 2 of 2): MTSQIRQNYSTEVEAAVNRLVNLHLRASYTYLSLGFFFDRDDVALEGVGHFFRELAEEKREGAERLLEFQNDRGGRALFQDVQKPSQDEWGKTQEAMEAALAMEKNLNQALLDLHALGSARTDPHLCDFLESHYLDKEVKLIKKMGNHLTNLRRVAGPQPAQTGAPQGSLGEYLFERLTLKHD
Briefly: ELISA; first-round screen: crude periplasmic extracts of the clones on coated human spleen ferritin or mouse liver ferritin; absorbance ratio greater than 2.5 selected. As to conditions: one partner purified. (An ELISA detects its analyte on a solid surface through an enzyme-linked reagent.)

Assay [1] concerns the target T2, GFP-tagged mouse ferritin (Mus musculus (ferritin moiety), UniProt P09528, chimera).
T2 construct: green fluorescent protein, the N-terminal GFP moiety of GFP-mFerritin; the rest of the chimeric ferritin and its linkers; ferritin heavy chain, mouse; found by mass spectrometry as the mouse ferritin of the construct; Runs at about 71 kDa; also called GFP-mFerritin; GFP-ferritin
Briefly: affinity purification with mass spectrometry; the anti-HA immunoprecipitates of nanobody-HA-mCherry from HEK-293T with GFP-mFerritin; LC-MS/MS, abundance from peptides unique to mouse or human ferritin heavy chain; enrichment against cells with GFP-mFerritin alone. As to conditions: partners not purified.

The target in assay [2] is T3, endogenous human ferritin of HEK-293T cells (Homo sapiens (HEK-293T, endogenous), UniProt P02794;P02792).
T3 construct: ferritin heavy chain, human; the chain whose unique peptides were quantified; ferritin light chain, human; Only the heavy chain was measured; also called human ferritin heavy chain; FTH1_human
T3 sequence (P02794 whole entry, chain 1 of 2): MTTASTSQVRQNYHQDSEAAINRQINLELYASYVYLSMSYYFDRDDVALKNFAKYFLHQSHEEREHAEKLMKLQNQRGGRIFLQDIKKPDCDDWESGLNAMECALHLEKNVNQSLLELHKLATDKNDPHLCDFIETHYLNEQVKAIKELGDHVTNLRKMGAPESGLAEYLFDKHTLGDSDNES
T3 sequence (P02792 whole entry, chain 2 of 2): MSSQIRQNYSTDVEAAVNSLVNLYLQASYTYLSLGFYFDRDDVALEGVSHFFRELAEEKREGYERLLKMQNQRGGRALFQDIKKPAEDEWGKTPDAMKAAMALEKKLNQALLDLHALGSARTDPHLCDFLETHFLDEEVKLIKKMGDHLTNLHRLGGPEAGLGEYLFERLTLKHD
The assay is described as above. As to conditions: partners not purified.

Assay [3] deals with T4, human spleen ferritin (Homo sapiens, UniProt P02794;P02792).
T4 construct: ferritin heavy chain, human, as part of ferritin from spleen; ferritin light chain, human, as part of ferritin from spleen; Tissue ferritin is a shell of heavy and light chains; also called human ferritin; source: bought: Lee Biosolutions (human spleen ferritin)
T4 sequence (P02794 whole entry, chain 1 of 2): as the sequence (P02794 whole entry, chain 1 of 2) above
T4 sequence (P02792 whole entry, chain 2 of 2): as the sequence (P02792 whole entry, chain 2 of 2) above
The experiment in a line: ELISA; first-round screen: crude periplasmic extracts of the clones on coated human spleen ferritin or mouse liver ferritin; absorbance ratio greater than 2.5 selected. As to conditions: one partner purified.

Assay [4] deals with T4, human spleen ferritin. Briefly: ITC; 10 uM human spleen ferritin in the cell, 75 uM NbFt2 in the syringe, 25 °C; MicroCal Auto-iTC200. As to conditions: both partners purified. For orientation: In ITC the heat of successive injections is recorded.
Assay [5] concerns the target T2, GFP-tagged mouse ferritin. The experiment in a line: co-IP; HEK-293T co-transfected with nanobody-HA-mCherry and GFP-mFerritin; lysis buffer 50 mM Tris pH 7.5, 300 mM NaCl, 1% NP-40, 0.1% SDS; anti-HA agarose overnight at 4 °C; eluate on SDS-PAGE, Coomassie. As to conditions: partners not purified.

B1: anti-ferritin nanobody clone 17 (VHH)
VHH: QVQLQESGGGAVQAGGSLRLSCAASGLAFSSYGMGWFRQAPGKEREFVAAISWGDGTTNYADSVKGRLTISRDNARNTVYLQMNSLKVGDTAVYYCAAGLGAPRAVAGSFQHWGQGTQVTVSS
notes: The text calls the preparation partially purified; also called Nb-Ft clone 17; Nb-Ft-17; source: crude periplasmic extract of the phage display clone (pMECS); E. coli WK6, purified (periplasmic extract, cobalt IMAC)
Turning to B1, in the assay with mouse liver ferritin, the binding result is listed as “binds”.

B2: anti-ferritin nanobody clone 17 fused to HA-tagged mCherry (VHH)
VHH: B1 VHH
notes: the VHH as in m19; also called Nb-Ft-17; Nb-Ft-HA-mCherry (clone 17)
In the case of B2, the figures for the “fold enrichment in the immunoprecipitate over cells with GFP-mFerritin alone” value (shortened to “fold enrichment in the immunoprecipitate”) in assay [1] and in assay [2] were 6 fold and 20.9 fold, respectively.

B3: anti-ferritin nanobody clone 11 (VHH)
VHH: QVQLQESGGGLVQPGGSLRLSCVATGLSFAKSWMYWVRQAPGKGLEWVAQISPSSVLIQYPDSVSGRFTVSRDNAKNTLFLQMDSLKSEDTAVYYCSTEMDGTSRGQGTQVTVSS
notes: One of the 17 nanobodies of CDR3 groups 6 and 26; also called Nb-Ft clone 11; Nb-Ft-11; source: crude periplasmic extract of the phage display clone (pMECS)
Take B3: the binding result with mouse liver ferritin is on record as “binds”.

B4: anti-ferritin nanobody clone 4 (VHH)
VHH: B3 VHH with V23A, T25S, K31N, V56L, Q59N, S88P
notes: One of the 17 nanobodies of CDR3 groups 6 and 26; also called Nb-Ft clone 4; Nb-Ft-4; source: crude periplasmic extract of the phage display clone (pMECS)
Regarding B4, in the assay with human spleen ferritin [3], the binding result is listed as “binds”.

B5: anti-ferritin nanobody clone 13 (VHH)
VHH: B3 VHH with T25S, K31N, V56L, Q59N, D62N, E99G
notes: One of the 17 nanobodies of CDR3 groups 6 and 26; also called Nb-Ft clone 13; Nb-Ft-13; source: crude periplasmic extract of the phage display clone (pMECS)
On to B5, for which, in the assay with mouse liver ferritin, the binding result is reported as “binds”.

B6: anti-ferritin nanobody clone 16 (VHH)
VHH: B3 VHH with V23A, T25S, K31N, V56I, S88P
notes: One of the 17 nanobodies of CDR3 groups 6 and 26; also called Nb-Ft clone 16; Nb-Ft-16; source: crude periplasmic extract of the phage display clone (pMECS)
On to B6, for which the binding result with mouse liver ferritin is listed as “binds”.

B7: anti-ferritin nanobody clone 15 (VHH)
VHH: B3 VHH with V23A, T25S, S88P, T91A, V93Q, S97A, E99D, D101S, S104Y
notes: One of the 17 nanobodies of CDR3 groups 6 and 26; also called Nb-Ft clone 15; Nb-Ft-15; source: crude periplasmic extract of the phage display clone (pMECS)
Take B7: the binding result in the assay with mouse liver ferritin is “binds”.

B8: anti-ferritin nanobody clone 8 (VHH)
VHH: QVQLQESGGGLVQPGGSLRLSCAASGFSFGDTWMYWVRQAPGKDIEWVAQISPSSVLINYPDSVSGRFTVGRDNAKNTLWLQMDSLKSEDTAVYYCATKMDGASRGQGTQVTVSS
notes: One of the 17 nanobodies of CDR3 groups 6 and 26; also called Nb-Ft clone 8; Nb-Ft-8; source: crude periplasmic extract of the phage display clone (pMECS)
Turning to B8, in the assay with mouse liver ferritin, the binding result is “binds”.

B9: anti-ferritin nanobody clone 2 (VHH)
VHH: QVQLQESGGGLVQPGGSLRLSCAASGLAFSNYGMGWFRQAPGKEREFVSAVSWISDTTNYADSVKGRFTISRDNARNTVYLQMNSLKVEDTAVYYCAAGLGAPRVVAGSYQHWGQGTQVTVSS
notes: The text calls the preparation partially purified; also called Nb-Ft clone 2; Nb-Ft-2; source: crude periplasmic extract of the phage display clone (pMECS); E. coli WK6, purified (periplasmic extract, cobalt IMAC)
B9 returned a Kd with human spleen ferritin [4] of 540 ± 200 nM.

B10: anti-ferritin nanobody clone 2 fused to HA-tagged mCherry (VHH)
VHH: B9 VHH
notes: the VHH as in m4; In the functional rows this id stands for the same VHH fused to the N-terminus of TRPV1 (Nb-Ft-2-TRPV1^Ca2+); also called Nb-Ft-2; Nb-Ft-HA-mCherry (clone 2)
With B10, the “fold enrichment in the immunoprecipitate” value in assay [1] was determined as 14.5 fold; in assay [2], 58.1 fold.

B11: anti-ferritin nanobody clone 1 (VHH)
VHH: QVQLQESGGGLVQAGGSLRLSCTASGLAFSSYAMGWFRQAPGKEREFVATIGWTGGTTNYADSVKGRFTISRDNARNTVYLQMNSLKVEDTAVYYCAAGLGAPTVVAGSYQHWGQGTQVTVSS
notes: One of the 17 nanobodies of CDR3 groups 6 and 26; also called Nb-Ft clone 1; Nb-Ft-1; source: crude periplasmic extract of the phage display clone (pMECS)
In the case of B11, the binding result with human spleen ferritin [3] is given as “binds”.

B12: anti-ferritin nanobody clone 7 (VHH)
VHH: B11 VHH with T23A, T50A, G52M, T54S, A75V, T91A, G108D, Y110F
notes: One of the 17 nanobodies of CDR3 groups 6 and 26; also called Nb-Ft clone 7; Nb-Ft-7; source: crude periplasmic extract of the phage display clone (pMECS)
Regarding B12, the binding result with human spleen ferritin [3] was “binds”.

B13: anti-ferritin nanobody clone 9 fused to HA-tagged mCherry (VHH)
VHH: B11 VHH with T23A, A33G, T50A, G52R, T54S, A75V, V79A, G108D
notes: the VHH as in m11; In the functional row this id stands for the same VHH fused to the N-terminus of TRPV1; also called Nb-Ft-9; Nb-Ft-HA-mCherry (clone 9)
On to B13, for which the “fold enrichment in the immunoprecipitate” value in assay [2] is 4.6 fold. Besides, the binding result in assay [5] is “binds”.

B14: anti-ferritin nanobody clone 14 (VHH)
VHH: B11 VHH with A14P, T23A, A33G, A49V, T50A, G52P, T54S, G108D
notes: The text calls the preparation partially purified; also called Nb-Ft clone 14; Nb-Ft-14; source: crude periplasmic extract of the phage display clone (pMECS); E. coli WK6, purified (periplasmic extract, cobalt IMAC)
B14: the binding result with mouse liver ferritin is “binds”.

B15: anti-ferritin nanobody clone 5 (VHH)
VHH: B1 VHH with A11L, A50S, G54S, D55G, G89E, A105V, F110Y
notes: One of the 17 nanobodies of CDR3 groups 6 and 26; also called Nb-Ft clone 5; Nb-Ft-5; source: crude periplasmic extract of the phage display clone (pMECS)
In the case of B15, the binding result in the assay with human spleen ferritin [3] is reported as “binds”.

B16: anti-ferritin nanobody clone 14 fused to HA-tagged mCherry (VHH)
VHH: B11 VHH with A14P, T23A, A33G, A49V, T50A, G52P, T54S, G108D
notes: the VHH as in m16; In the functional row this id stands for the same VHH fused to the N-terminus of TRPV1; also called Nb-Ft-14; Nb-Ft-HA-mCherry (clone 14)
Regarding B16, the “fold enrichment in the immunoprecipitate” value in assay [2] came to 5.1 fold. In addition, the binding result in assay [5] is reported as “binds”.

B17: anti-ferritin nanobody clone 9 (VHH)
VHH: B11 VHH with T23A, A33G, T50A, G52R, T54S, A75V, V79A, G108D
notes: The text calls the preparation partially purified; also called Nb-Ft clone 9; Nb-Ft-9; source: crude periplasmic extract of the phage display clone (pMECS); E. coli WK6, purified (periplasmic extract, cobalt IMAC)
As for B17, the binding result with mouse liver ferritin is listed as “binds”.

B18: anti-ferritin nanobody clone 3 (VHH)
VHH: B1 VHH with V2G, A50S, G54T, D55G, G89E, A105V, F110Y
notes: One of the 17 nanobodies of CDR3 groups 6 and 26; also called Nb-Ft clone 3; Nb-Ft-3; source: crude periplasmic extract of the phage display clone (pMECS)
In the case of B18, the binding result with human spleen ferritin [3] is “binds”.

B19: anti-ferritin nanobody clone 10 (VHH)
VHH: B11 VHH with T23A, A33G, A49V, T50A, G52P, T54S, G108D
notes: The text calls the preparation partially purified; also called Nb-Ft clone 10; Nb-Ft-10; source: crude periplasmic extract of the phage display clone (pMECS); E. coli WK6, purified (periplasmic extract, cobalt IMAC)
In the case of B19, the binding result in the assay with mouse liver ferritin is “binds”.

B20: anti-ferritin nanobody clone 10 fused to HA-tagged mCherry (VHH)
VHH: B11 VHH with T23A, A33G, A49V, T50A, G52P, T54S, G108D
notes: the VHH as in m12; also called Nb-Ft-10; Nb-Ft-HA-mCherry (clone 10)
With B20, the “fold enrichment in the immunoprecipitate” value in assay [2] amounted to 7 fold. In addition, in assay [5], the binding result is given as “binds”.

B21: anti-ferritin nanobody clone 12 (VHH)
VHH: B11 VHH with T23A, A33G, K43E, T50A, G52S, T54S, S63F
notes: One of the 17 nanobodies of CDR3 groups 6 and 26; also called Nb-Ft clone 12; Nb-Ft-12; source: crude periplasmic extract of the phage display clone (pMECS)
In the case of B21, the binding result with mouse liver ferritin is “binds”.

B22: anti-ferritin nanobody clone 6 (VHH)
VHH: B11 VHH with T23A, A33G, T50A, T69I, T104M, A107V
notes: One of the 17 nanobodies of CDR3 groups 6 and 26; also called Nb-Ft clone 6; Nb-Ft-6; source: crude periplasmic extract of the phage display clone (pMECS)
As to B22, the binding result in the assay with human spleen ferritin [3] was “binds”.
